# Patent publication US20260167699A1 (Chugai, published 2026)
# Target: T1, FcγRIIIa extracellular domain, C-terminal His tag (human, UniProt P08637 17-208)
# T1 construct: extracellular domain; also called 3a
# Assay: SPR, binding activity relative to GpH7-A5/GpH7-B3/GpL16-k0 (=100)
# T1 sequence (P08637 other isoform, or with tags, fused parts or gaps): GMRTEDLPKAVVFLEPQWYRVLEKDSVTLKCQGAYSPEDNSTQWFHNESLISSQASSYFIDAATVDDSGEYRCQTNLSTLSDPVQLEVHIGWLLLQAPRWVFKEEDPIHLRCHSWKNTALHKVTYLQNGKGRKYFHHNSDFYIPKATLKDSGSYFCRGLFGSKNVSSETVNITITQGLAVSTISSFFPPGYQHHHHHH
row,Binder,He/Con 3a
1,"GpH7-A5/GpH7-B3 variant P331_15Y/GpL16-k0 (antibody, human IgG1, kappa, He Ab; copies: 1 + 1 + 2) heavy 1: not shown heavy 2: not shown light: DIVMTQSPLSLPVTPGEPASISCQASESLVHSNRNTYLHWYLQKPGQSPQLLIYKVSNRFSGVPDRFSGSGSGTDFTLKISRVEAEDVGVYYCSQNTHVPPTFGQGTKVEIERTVAAPSVFIFPPSDEQLKSGTASVVCLLNNFYPREAKVQWKVDNALQSGNSQESVTEQDSKDSTYSLSSTLTLSKADYEKHKVYACEVTHQGLSSPVTKSFNRGEC",74.9%
2,"GpH7-A5/GpH7-B3 variant Q295_04F/GpL16-k0 (antibody, human IgG1, kappa, He Ab; copies: 1 + 1 + 2) heavy 1: not shown heavy 2: not shown light: DIVMTQSPLSLPVTPGEPASISCQASESLVHSNRNTYLHWYLQKPGQSPQLLIYKVSNRFSGVPDRFSGSGSGTDFTLKISRVEAEDVGVYYCSQNTHVPPTFGQGTKVEIERTVAAPSVFIFPPSDEQLKSGTASVVCLLNNFYPREAKVQWKVDNALQSGNSQESVTEQDSKDSTYSLSSTLTLSKADYEKHKVYACEVTHQGLSSPVTKSFNRGEC",75.1%
3,"GpH7-A5/GpH7-B3 variant Q295_03V/GpL16-k0 (antibody, human IgG1, kappa, He Ab; copies: 1 + 1 + 2) heavy 1: not shown heavy 2: not shown light: DIVMTQSPLSLPVTPGEPASISCQASESLVHSNRNTYLHWYLQKPGQSPQLLIYKVSNRFSGVPDRFSGSGSGTDFTLKISRVEAEDVGVYYCSQNTHVPPTFGQGTKVEIERTVAAPSVFIFPPSDEQLKSGTASVVCLLNNFYPREAKVQWKVDNALQSGNSQESVTEQDSKDSTYSLSSTLTLSKADYEKHKVYACEVTHQGLSSPVTKSFNRGEC",86.2%
4,"GpH7-A5/GpH7-B3 variant P331_19Q/GpL16-k0 (antibody, human IgG1, kappa, He Ab; copies: 1 + 1 + 2) heavy 1: not shown heavy 2: not shown light: DIVMTQSPLSLPVTPGEPASISCQASESLVHSNRNTYLHWYLQKPGQSPQLLIYKVSNRFSGVPDRFSGSGSGTDFTLKISRVEAEDVGVYYCSQNTHVPPTFGQGTKVEIERTVAAPSVFIFPPSDEQLKSGTASVVCLLNNFYPREAKVQWKVDNALQSGNSQESVTEQDSKDSTYSLSSTLTLSKADYEKHKVYACEVTHQGLSSPVTKSFNRGEC",73.9%
5,"GpH7-A5/GpH7-B3 variant Q295_05P/GpL16-k0 (antibody, human IgG1, kappa, He Ab; copies: 1 + 1 + 2) heavy 1: not shown heavy 2: not shown light: DIVMTQSPLSLPVTPGEPASISCQASESLVHSNRNTYLHWYLQKPGQSPQLLIYKVSNRFSGVPDRFSGSGSGTDFTLKISRVEAEDVGVYYCSQNTHVPPTFGQGTKVEIERTVAAPSVFIFPPSDEQLKSGTASVVCLLNNFYPREAKVQWKVDNALQSGNSQESVTEQDSKDSTYSLSSTLTLSKADYEKHKVYACEVTHQGLSSPVTKSFNRGEC",74.4%
6,"GpH7-A5/GpH7-B3 variant P331_16H/GpL16-k0 (antibody, human IgG1, kappa, He Ab; copies: 1 + 1 + 2) heavy 1: not shown heavy 2: not shown light: DIVMTQSPLSLPVTPGEPASISCQASESLVHSNRNTYLHWYLQKPGQSPQLLIYKVSNRFSGVPDRFSGSGSGTDFTLKISRVEAEDVGVYYCSQNTHVPPTFGQGTKVEIERTVAAPSVFIFPPSDEQLKSGTASVVCLLNNFYPREAKVQWKVDNALQSGNSQESVTEQDSKDSTYSLSSTLTLSKADYEKHKVYACEVTHQGLSSPVTKSFNRGEC",73.4%
7,"GpH7-A5/GpH7-B3 variant P331_18N/GpL16-k0 (antibody, human IgG1, kappa, He Ab; copies: 1 + 1 + 2) heavy 1: not shown heavy 2: not shown light: DIVMTQSPLSLPVTPGEPASISCQASESLVHSNRNTYLHWYLQKPGQSPQLLIYKVSNRFSGVPDRFSGSGSGTDFTLKISRVEAEDVGVYYCSQNTHVPPTFGQGTKVEIERTVAAPSVFIFPPSDEQLKSGTASVVCLLNNFYPREAKVQWKVDNALQSGNSQESVTEQDSKDSTYSLSSTLTLSKADYEKHKVYACEVTHQGLSSPVTKSFNRGEC",67.1%
8,"GpH7-A5/GpH7-B3 variant P331_20W/GpL16-k0 (antibody, human IgG1, kappa, He Ab; copies: 1 + 1 + 2) heavy 1: not shown heavy 2: not shown light: DIVMTQSPLSLPVTPGEPASISCQASESLVHSNRNTYLHWYLQKPGQSPQLLIYKVSNRFSGVPDRFSGSGSGTDFTLKISRVEAEDVGVYYCSQNTHVPPTFGQGTKVEIERTVAAPSVFIFPPSDEQLKSGTASVVCLLNNFYPREAKVQWKVDNALQSGNSQESVTEQDSKDSTYSLSSTLTLSKADYEKHKVYACEVTHQGLSSPVTKSFNRGEC",71.9%
9,"GpH7-A5/GpH7-B3 variant Q295_02A/GpL16-k0 (antibody, human IgG1, kappa, He Ab; copies: 1 + 1 + 2) heavy 1: not shown heavy 2: not shown light: DIVMTQSPLSLPVTPGEPASISCQASESLVHSNRNTYLHWYLQKPGQSPQLLIYKVSNRFSGVPDRFSGSGSGTDFTLKISRVEAEDVGVYYCSQNTHVPPTFGQGTKVEIERTVAAPSVFIFPPSDEQLKSGTASVVCLLNNFYPREAKVQWKVDNALQSGNSQESVTEQDSKDSTYSLSSTLTLSKADYEKHKVYACEVTHQGLSSPVTKSFNRGEC",111%
10,"GpH7-A5/GpH7-B3 variant Q295_01G/GpL16-k0 (antibody, human IgG1, kappa, He Ab; copies: 1 + 1 + 2) heavy 1: not shown heavy 2: not shown light: DIVMTQSPLSLPVTPGEPASISCQASESLVHSNRNTYLHWYLQKPGQSPQLLIYKVSNRFSGVPDRFSGSGSGTDFTLKISRVEAEDVGVYYCSQNTHVPPTFGQGTKVEIERTVAAPSVFIFPPSDEQLKSGTASVVCLLNNFYPREAKVQWKVDNALQSGNSQESVTEQDSKDSTYSLSSTLTLSKADYEKHKVYACEVTHQGLSSPVTKSFNRGEC",76.6%

# Further lines, results first:
row,He/Con 3a,Binder
1,85.7%,"GpH7-A5/GpH7-B3 variant Q295_18N/GpL16-k0 (antibody, human IgG1, kappa, He Ab; copies: 1 + 1 + 2) heavy 1: not shown heavy 2: not shown light: DIVMTQSPLSLPVTPGEPASISCQASESLVHSNRNTYLHWYLQKPGQSPQLLIYKVSNRFSGVPDRFSGSGSGTDFTLKISRVEAEDVGVYYCSQNTHVPPTFGQGTKVEIERTVAAPSVFIFPPSDEQLKSGTASVVCLLNNFYPREAKVQWKVDNALQSGNSQESVTEQDSKDSTYSLSSTLTLSKADYEKHKVYACEVTHQGLSSPVTKSFNRGEC"
2,80.2%,"GpH7-A5/GpH7-B3 variant Q295_16H/GpL16-k0 (antibody, human IgG1, kappa, He Ab; copies: 1 + 1 + 2) heavy 1: not shown heavy 2: not shown light: DIVMTQSPLSLPVTPGEPASISCQASESLVHSNRNTYLHWYLQKPGQSPQLLIYKVSNRFSGVPDRFSGSGSGTDFTLKISRVEAEDVGVYYCSQNTHVPPTFGQGTKVEIERTVAAPSVFIFPPSDEQLKSGTASVVCLLNNFYPREAKVQWKVDNALQSGNSQESVTEQDSKDSTYSLSSTLTLSKADYEKHKVYACEVTHQGLSSPVTKSFNRGEC"
3,81.5%,"GpH7-A5/GpH7-B3 variant Q295_15Y/GpL16-k0 (antibody, human IgG1, kappa, He Ab; copies: 1 + 1 + 2) heavy 1: not shown heavy 2: not shown light: DIVMTQSPLSLPVTPGEPASISCQASESLVHSNRNTYLHWYLQKPGQSPQLLIYKVSNRFSGVPDRFSGSGSGTDFTLKISRVEAEDVGVYYCSQNTHVPPTFGQGTKVEIERTVAAPSVFIFPPSDEQLKSGTASVVCLLNNFYPREAKVQWKVDNALQSGNSQESVTEQDSKDSTYSLSSTLTLSKADYEKHKVYACEVTHQGLSSPVTKSFNRGEC"
4,120%,"GpH7-A5/GpH7-B3 variant Q295_08L/GpL16-k0 (antibody, human IgG1, kappa, He Ab; copies: 1 + 1 + 2) heavy 1: not shown heavy 2: not shown light: DIVMTQSPLSLPVTPGEPASISCQASESLVHSNRNTYLHWYLQKPGQSPQLLIYKVSNRFSGVPDRFSGSGSGTDFTLKISRVEAEDVGVYYCSQNTHVPPTFGQGTKVEIERTVAAPSVFIFPPSDEQLKSGTASVVCLLNNFYPREAKVQWKVDNALQSGNSQESVTEQDSKDSTYSLSSTLTLSKADYEKHKVYACEVTHQGLSSPVTKSFNRGEC"
5,81.8%,"GpH7-A5/GpH7-B3 variant Q295_11K/GpL16-k0 (antibody, human IgG1, kappa, He Ab; copies: 1 + 1 + 2) heavy 1: not shown heavy 2: not shown light: DIVMTQSPLSLPVTPGEPASISCQASESLVHSNRNTYLHWYLQKPGQSPQLLIYKVSNRFSGVPDRFSGSGSGTDFTLKISRVEAEDVGVYYCSQNTHVPPTFGQGTKVEIERTVAAPSVFIFPPSDEQLKSGTASVVCLLNNFYPREAKVQWKVDNALQSGNSQESVTEQDSKDSTYSLSSTLTLSKADYEKHKVYACEVTHQGLSSPVTKSFNRGEC"
6,101%,"GpH7-A5/GpH7-B3 variant Q295_07I/GpL16-k0 (antibody, human IgG1, kappa, He Ab; copies: 1 + 1 + 2) heavy 1: not shown heavy 2: not shown light: DIVMTQSPLSLPVTPGEPASISCQASESLVHSNRNTYLHWYLQKPGQSPQLLIYKVSNRFSGVPDRFSGSGSGTDFTLKISRVEAEDVGVYYCSQNTHVPPTFGQGTKVEIERTVAAPSVFIFPPSDEQLKSGTASVVCLLNNFYPREAKVQWKVDNALQSGNSQESVTEQDSKDSTYSLSSTLTLSKADYEKHKVYACEVTHQGLSSPVTKSFNRGEC"
7,73.2%,"GpH7-A5/GpH7-B3 variant Q295_12R/GpL16-k0 (antibody, human IgG1, kappa, He Ab; copies: 1 + 1 + 2) heavy 1: not shown heavy 2: not shown light: DIVMTQSPLSLPVTPGEPASISCQASESLVHSNRNTYLHWYLQKPGQSPQLLIYKVSNRFSGVPDRFSGSGSGTDFTLKISRVEAEDVGVYYCSQNTHVPPTFGQGTKVEIERTVAAPSVFIFPPSDEQLKSGTASVVCLLNNFYPREAKVQWKVDNALQSGNSQESVTEQDSKDSTYSLSSTLTLSKADYEKHKVYACEVTHQGLSSPVTKSFNRGEC"
8,90.4%,"GpH7-A5/GpH7-B3 variant Q295_13S/GpL16-k0 (antibody, human IgG1, kappa, He Ab; copies: 1 + 1 + 2) heavy 1: not shown heavy 2: not shown light: DIVMTQSPLSLPVTPGEPASISCQASESLVHSNRNTYLHWYLQKPGQSPQLLIYKVSNRFSGVPDRFSGSGSGTDFTLKISRVEAEDVGVYYCSQNTHVPPTFGQGTKVEIERTVAAPSVFIFPPSDEQLKSGTASVVCLLNNFYPREAKVQWKVDNALQSGNSQESVTEQDSKDSTYSLSSTLTLSKADYEKHKVYACEVTHQGLSSPVTKSFNRGEC"
9,105%,"GpH7-A5/GpH7-B3 variant Q295_10E/GpL16-k0 (antibody, human IgG1, kappa, He Ab; copies: 1 + 1 + 2) heavy 1: not shown heavy 2: not shown light: DIVMTQSPLSLPVTPGEPASISCQASESLVHSNRNTYLHWYLQKPGQSPQLLIYKVSNRFSGVPDRFSGSGSGTDFTLKISRVEAEDVGVYYCSQNTHVPPTFGQGTKVEIERTVAAPSVFIFPPSDEQLKSGTASVVCLLNNFYPREAKVQWKVDNALQSGNSQESVTEQDSKDSTYSLSSTLTLSKADYEKHKVYACEVTHQGLSSPVTKSFNRGEC"
10,120%,"GpH7-A5/GpH7-B3 variant Q295_14T/GpL16-k0 (antibody, human IgG1, kappa, He Ab; copies: 1 + 1 + 2) heavy 1: not shown heavy 2: not shown light: DIVMTQSPLSLPVTPGEPASISCQASESLVHSNRNTYLHWYLQKPGQSPQLLIYKVSNRFSGVPDRFSGSGSGTDFTLKISRVEAEDVGVYYCSQNTHVPPTFGQGTKVEIERTVAAPSVFIFPPSDEQLKSGTASVVCLLNNFYPREAKVQWKVDNALQSGNSQESVTEQDSKDSTYSLSSTLTLSKADYEKHKVYACEVTHQGLSSPVTKSFNRGEC"
11,85.6%,"GpH7-A5/GpH7-B3 variant Q295_09D/GpL16-k0 (antibody, human IgG1, kappa, He Ab; copies: 1 + 1 + 2) heavy 1: not shown heavy 2: not shown light: DIVMTQSPLSLPVTPGEPASISCQASESLVHSNRNTYLHWYLQKPGQSPQLLIYKVSNRFSGVPDRFSGSGSGTDFTLKISRVEAEDVGVYYCSQNTHVPPTFGQGTKVEIERTVAAPSVFIFPPSDEQLKSGTASVVCLLNNFYPREAKVQWKVDNALQSGNSQESVTEQDSKDSTYSLSSTLTLSKADYEKHKVYACEVTHQGLSSPVTKSFNRGEC"
12,100%,"GpH7-A5/GpH7-B3 variant Q295_06M/GpL16-k0 (antibody, human IgG1, kappa, He Ab; copies: 1 + 1 + 2) heavy 1: not shown heavy 2: not shown light: DIVMTQSPLSLPVTPGEPASISCQASESLVHSNRNTYLHWYLQKPGQSPQLLIYKVSNRFSGVPDRFSGSGSGTDFTLKISRVEAEDVGVYYCSQNTHVPPTFGQGTKVEIERTVAAPSVFIFPPSDEQLKSGTASVVCLLNNFYPREAKVQWKVDNALQSGNSQESVTEQDSKDSTYSLSSTLTLSKADYEKHKVYACEVTHQGLSSPVTKSFNRGEC"
